Legend:
[1] = SEC-MALS purification and analysis on Superdex 75; type: physicochemical
Procedure: To perform a further test for the presence of seeds, and determine whether the detected oligomers affected the self-assembly kinetics, Aβ(1-42) samples were purified by SEC, and their self-assembly kinetics were compared to those of unpurified samples. In summary, following the protocol used by Hellstrand et al.,[39] […] The fraction eluting from 13.6 to 14.6 min (at 1 mL/min) was collected on ice, diluted variably (60, 80, or 100%, i.e., undiluted) in the elution buffer to give a range of concentrations, supplemented with ThT from a concentrated stock, and used in ThT assays. This purification procedure was repeated several times with reproducible results, and a representative elugram is shown in Figure 6a. The UV absorbance and RI elugrams are very similar to those previously reported for in-house recombinant peptide purified according to the same protocol,[39] and the peak at ∼14 min has already been identified as the monomer. MALS analysis of the ROI from 13.6 to 14.6 min was challenging, as the very weak scattering signal meant that the Mw estimates were particularly sensitive to baseline subtraction errors. Nonetheless, the average Mw value of this ROI across three concordant replicates was 6460 ± 712 Da, where the error margins represent one standard deviation, consistent with the peak containing mostly monomer with a small but significant amount of contaminating oligomer. […] Samples were analyzed and purified in small batches using an analytical Superdex 75 column (GE Healthcare) equilibrated in 20 mM sodium phosphate buffer (pH 8) with 200 μM EDTA and 1 mM NaN3. The column was run with the TIP pump from the AF4 system (Postnova Analytics, Landsberg am Lech, Germany), and in-line UV (280 nm; Shimadzu, U.K.), MALS (Postnova Analytics, Landsberg am Lech, Germany), and RI (Postnova Analytics, Landsberg am Lech, Germany) detectors. The RI detector was purged following equilibration, and the UV and RI detectors were then zeroed. The sample was injected, with an injection volume of 50 μL, and run at 1.0 mL/min for 35 min. Between sample runs, blanks consisting of the same solvent without the Aβ(1-42) were loaded to check that the column was clean and to allow blank subtraction of the detector signals. Data processing and estimation of sample concentration, molecular weight, and recovery were carried out in the AF2000 Control software (Postnova Analytics, Landsberg am Lech, Germany), with final data processing in GraphPad Prism version 8.3.0. For preparative runs, the sample was collected at the end. […] Eluted Aβ was mixed and split into three aliquots; these were then diluted to 60, 80, or 100% (i.e., undiluted) their concentration in the same elution buffer and supplemented with 20 μM ThT from a 2 mM stock, as described in Hellstrand et al.[39] […]

[2] = Storage stability at −80 °C (ThT half-time against storage time); type: physicochemical
Excerpt: To more quantitatively assess this stability, the mean fibrillization half-time τhalf of each ThT experiment was plotted against the storage time of the corresponding aliquot.
Each point corresponds to the average fibrillization half-time of a single ThT experiment; the error bars, which in some cases are too small to show, represent a single standard deviation. The fitted curve is an exponential decay of the form τhalf = τhalf^′e^–kmodt, where τhalf is the self-assembly half-time, τhalf^′ is the half-time prior to the effects of storage, kmod is the proportional rate of change of τhalf during storage, and t is the storage time. See text for values of the fitted parameters and Table S2 for the correspondence between the color scheme and sample ID.

Which “average Mw of the SEC ROI from 13.6 to 14.6 min” value ([1]; 50 mM NaOH sample, Superdex 75, 20 mM sodium phosphate pH 8, 200 μM EDTA, 1 mM NaN3, 1 mL/min, three concordant replicates, ± SD) does the source give for “Aβ(1-42): Ultrapure recombinant Aβ(1-42) purchased from rPeptide, lyophilized from HFIP; disordered amyloid-forming peptide” here?
The value was 6460 ± 712 Da.

What about the “total mass of Aβ(1-42) in the fraction collected from 13.6 to 14.6 min” value ([1]; 50 μL of 1 mg/mL injected, Superdex 75, pH 8) of the same substance?
Its value is 28.4 ± 7.13 µg.

And the “concentration of the collected monomer fraction” value ([1]; fraction 13.6–14.6 min)?
Its value is 6.29 µM.

What about the “recovery in the collected monomer fraction” value ([1]; fraction 13.6–14.6 min, 50 μL of 1 mg/mL injected) of the same substance?
The value was 56.8 % of the injected mass.

What about the “period of stability at −80 °C” value ([2]; 5 min sonication in 50 mM NaOH, frozen in liquid N2) of the same substance?
The value was “over 39 days”.

And the “rate constant kmod of decay of the self-assembly half-time during storage” value ([2]; 5 min sonication in 50 mM NaOH, stored at −80 °C for 1 to 39 days, exponential fit, not significantly different from 0 (P = 0.3011))?
Its value is 6.53 × 10^–4 day^–1.

And the “time constant τmod” value ([2]; storage at −80 °C, from exponential fit)?
Its value is 1530 days.

Reference: PMC9817077, “Simple, Reliable Protocol for High-Yield Solubilization of Seedless Amyloid-β Monomer” (ACS Chemical Neuroscience, 2022)
